Experimental findings from patent US20010034432A1 are described below.

The target in experiment [1] is human CCR5 with a C-terminal glycine residue followed by the C9 nonapeptide tag (expressed from the (human; bovine) (UniProt P51681). The experiment in a line: immunoprecipitation from 35S-labeled Cf2Th/PACH/synCCR5 lysate in 1% DHPC, SDS-PAGE.
For experiment [2] the target is unchanged. In words: immunoprecipitation from 35S-labeled Cf2Th/PACH/synCCR5 lysate in 1% Cymal-5, SDS-PAGE.
Experiment [3] shares this target. The experiment in a line: immunoprecipitation from 35S-labeled Cf2Th/PACH/synCCR5 lysate in 1% Fos-Choline-14, SDS-PAGE.
Experiment [4] addresses cleavage-defective, cytoplasmic tail-truncated gp160 envelope glycoprotein of the YU2 HIV-1 primary (HIV-1 YU2 primary isolate; bovine) (UniProt P35961). In words: FACS binding curves on gp160-expressing 293T cells and gp160-proteoliposomes. In general terms: In flow cytometry, cells or beads pass a laser one at a time.
UniProt P35961, sequence (P35961 whole entry, the tested form may be a part): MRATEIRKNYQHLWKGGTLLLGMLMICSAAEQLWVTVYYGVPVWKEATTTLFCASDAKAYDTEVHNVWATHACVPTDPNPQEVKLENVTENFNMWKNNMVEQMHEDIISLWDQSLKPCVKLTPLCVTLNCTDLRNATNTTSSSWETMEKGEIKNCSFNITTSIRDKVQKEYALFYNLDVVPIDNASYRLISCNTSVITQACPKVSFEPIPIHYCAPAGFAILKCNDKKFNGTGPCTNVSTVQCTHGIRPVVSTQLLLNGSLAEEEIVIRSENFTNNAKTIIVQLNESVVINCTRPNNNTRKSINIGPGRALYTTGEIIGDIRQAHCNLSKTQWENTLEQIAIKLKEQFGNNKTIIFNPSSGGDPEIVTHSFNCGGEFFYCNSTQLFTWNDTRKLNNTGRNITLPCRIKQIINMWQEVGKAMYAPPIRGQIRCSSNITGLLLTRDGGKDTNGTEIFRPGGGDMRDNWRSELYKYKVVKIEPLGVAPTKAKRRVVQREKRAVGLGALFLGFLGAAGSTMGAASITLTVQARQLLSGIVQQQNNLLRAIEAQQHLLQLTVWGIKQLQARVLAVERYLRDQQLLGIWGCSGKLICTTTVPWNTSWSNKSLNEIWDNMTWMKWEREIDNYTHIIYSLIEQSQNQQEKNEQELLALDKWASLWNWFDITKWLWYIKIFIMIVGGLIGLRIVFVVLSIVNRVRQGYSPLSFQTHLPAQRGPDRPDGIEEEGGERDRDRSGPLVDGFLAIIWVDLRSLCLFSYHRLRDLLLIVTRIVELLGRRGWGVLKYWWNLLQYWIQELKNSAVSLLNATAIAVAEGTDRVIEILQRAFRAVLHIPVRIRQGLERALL

UniProt P51681, sequence (P51681 whole entry): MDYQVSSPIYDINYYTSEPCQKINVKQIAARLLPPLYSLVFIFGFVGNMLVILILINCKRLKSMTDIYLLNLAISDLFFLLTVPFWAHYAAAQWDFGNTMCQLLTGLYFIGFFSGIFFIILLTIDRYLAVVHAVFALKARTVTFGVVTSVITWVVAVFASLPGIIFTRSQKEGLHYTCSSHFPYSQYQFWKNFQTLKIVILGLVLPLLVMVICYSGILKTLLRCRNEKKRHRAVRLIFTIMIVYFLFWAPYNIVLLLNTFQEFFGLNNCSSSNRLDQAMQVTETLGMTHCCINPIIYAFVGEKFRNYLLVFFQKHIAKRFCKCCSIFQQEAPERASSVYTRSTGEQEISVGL

On to “2D7 anti-CCR5 antibody (conformation-dependent)”, for which the percentage of conformationally intact CCR5 (CCR5 precipitated by 2D7 relative to that precipitated by 1D4) is 10% in experiment [1], 98% in experiment [2] and 13% in experiment [3].
A word on the EC50: it is the concentration giving half of the maximal effect. A lower EC50 goes with a more potent agent. As for CD4BS antibody IgGb12, the EC50 in experiment [4] was under 1 mg/L.
